From patent US20180185504A1 (Regeneron, published 2018) come the findings set out here.

Numbering of substitutions follows the chain as printed.

Test [1] concerns the target T1, human PRLR on cells (endogenous on T47D, T47D#11, MCF7); introduced in HEK293/hPRLR/STAT5-Luc, 293/hPRLR, … (human, UniProt P16471 25-622).
T1 sequence: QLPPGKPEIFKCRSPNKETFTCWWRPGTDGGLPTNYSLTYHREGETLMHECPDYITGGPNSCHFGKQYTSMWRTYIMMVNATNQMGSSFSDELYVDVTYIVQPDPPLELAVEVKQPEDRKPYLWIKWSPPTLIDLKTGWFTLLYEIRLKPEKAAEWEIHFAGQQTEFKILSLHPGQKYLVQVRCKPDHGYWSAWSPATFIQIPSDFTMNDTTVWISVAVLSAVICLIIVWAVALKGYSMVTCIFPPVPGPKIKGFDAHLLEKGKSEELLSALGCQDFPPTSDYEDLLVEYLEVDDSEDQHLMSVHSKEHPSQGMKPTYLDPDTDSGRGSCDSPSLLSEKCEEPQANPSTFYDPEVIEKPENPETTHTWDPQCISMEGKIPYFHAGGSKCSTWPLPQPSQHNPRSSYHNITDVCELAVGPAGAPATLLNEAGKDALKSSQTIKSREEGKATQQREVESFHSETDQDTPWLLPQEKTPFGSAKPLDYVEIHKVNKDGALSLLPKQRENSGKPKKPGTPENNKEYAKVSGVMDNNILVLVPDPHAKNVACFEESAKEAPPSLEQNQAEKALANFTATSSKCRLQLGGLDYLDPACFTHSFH
The experiment in a line: cell-based or functional assay.

Test [2] concerns the target T1, human PRLR on cells (endogenous on …). The experiment in a line: FACS on T47D cells.
Test [3] shares this target. The experiment in a line: cell-based or functional assay. The source holds these as a separate data set.
For test [4], the target named is T2, mouse PRLR construct with an HA tag on HEK293/mPRLR cells (mouse, UniProt Q08501 20-608).
T2 construct: whole, on cells; stably transfected into HEK293
T2 sequence (looked up): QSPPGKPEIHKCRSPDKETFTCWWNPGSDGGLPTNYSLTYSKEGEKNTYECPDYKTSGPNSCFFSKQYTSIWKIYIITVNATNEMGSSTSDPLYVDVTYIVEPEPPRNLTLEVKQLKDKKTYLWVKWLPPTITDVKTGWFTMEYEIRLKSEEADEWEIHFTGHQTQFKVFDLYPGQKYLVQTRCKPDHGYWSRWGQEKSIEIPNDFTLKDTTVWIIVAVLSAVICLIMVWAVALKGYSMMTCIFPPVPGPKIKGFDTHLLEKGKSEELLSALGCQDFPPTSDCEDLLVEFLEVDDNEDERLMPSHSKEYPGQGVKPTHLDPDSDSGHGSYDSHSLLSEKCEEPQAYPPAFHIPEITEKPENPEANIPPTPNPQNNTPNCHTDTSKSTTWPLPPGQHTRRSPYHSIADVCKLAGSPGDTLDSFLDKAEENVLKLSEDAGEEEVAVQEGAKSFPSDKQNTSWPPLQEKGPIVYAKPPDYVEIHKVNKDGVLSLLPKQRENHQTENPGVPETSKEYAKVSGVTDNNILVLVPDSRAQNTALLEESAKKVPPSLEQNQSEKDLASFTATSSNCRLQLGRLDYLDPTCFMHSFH
The experiment in a line: FACS on HEK293/mPRLR cells.

Test [5] has as its target T3, hPRLR.mmh (soluble monomeric human PRLR) (human).
T3 construct: soluble monomeric PRLR protein
T3 chain: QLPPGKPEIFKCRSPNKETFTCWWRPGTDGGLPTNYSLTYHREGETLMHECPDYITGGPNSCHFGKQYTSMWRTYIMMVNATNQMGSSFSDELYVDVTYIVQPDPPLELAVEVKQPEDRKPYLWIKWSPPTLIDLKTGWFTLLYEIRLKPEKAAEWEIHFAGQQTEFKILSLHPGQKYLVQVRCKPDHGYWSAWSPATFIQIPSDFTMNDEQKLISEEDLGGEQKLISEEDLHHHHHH
Description: SPR (Biacore), antibody capture, 37 C. Here is the method:
(§1) Measurements were conducted on a T200 Biacore instrument. Kinetic association (kₐ) and dissociation (kd) rate constants were determined by processing and fitting the data to a 1:1 binding model using Scrubber 2.0 curve fitting software.

In test [6] the target is T4, mfPRLR.mmh (soluble monomeric macaca fascicularis PRLR) (macaca fascicularis).
T4 construct: soluble monomeric PRLR protein; also called macaca fascicularis (mf) PRLR.mmh; monkey PRLR
T4 chain: T3 chain with I76V, A110T, I125M, I158T, T207I
Description: SPR (Biacore), antibody capture, 37 C. Here is the method:
as §1

Test [7] concerns the target T5, hPRLR.mFc (soluble dimeric human PRLR) (human).
T5 construct: dimeric PRLR construct
T5 chain: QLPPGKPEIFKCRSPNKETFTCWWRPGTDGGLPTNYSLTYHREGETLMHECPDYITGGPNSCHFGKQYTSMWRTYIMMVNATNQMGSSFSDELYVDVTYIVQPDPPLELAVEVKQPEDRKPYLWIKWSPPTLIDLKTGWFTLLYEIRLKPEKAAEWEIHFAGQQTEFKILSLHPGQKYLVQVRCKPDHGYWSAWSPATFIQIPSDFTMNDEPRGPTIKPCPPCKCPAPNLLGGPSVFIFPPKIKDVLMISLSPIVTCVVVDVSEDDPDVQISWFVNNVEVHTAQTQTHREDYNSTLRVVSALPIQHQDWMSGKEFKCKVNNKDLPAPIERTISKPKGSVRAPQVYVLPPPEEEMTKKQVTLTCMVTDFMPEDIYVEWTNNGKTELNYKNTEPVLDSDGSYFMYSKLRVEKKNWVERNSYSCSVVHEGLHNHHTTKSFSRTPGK
The experiment in a line: SPR (Biacore), antibody capture, 37 C. Here is the method:
as §1
(Surface plasmon resonance follows binding to a sensor surface in real time, without labels.)

B1: H1H6959N2 (antibody, human IgG1, V domains shown)
VH: EVQLVESGGGLVQPGRSLRLSCAASGFTFDDYAMHWVRQAPGKGLEWVSGISWHSGIIGYADSVKGRFTISRDNAKNSLYLQMNSLRTEDAALYYCAKIGSYFYFDSWGQGTLVTVSS
VL: EIVLTQSPGTLSLSPGERATLSCRASQSVSSNYLAWYQQKPGQAPRLLIYGASSRATGIPDRFSGSGSGTDFTLTISRLEPEDFAVYYCQQFGSSGYTFGQGTNLEIK
notes: also called H2M6959N2
As for B1, the “% Internalization relative to Control I (T47D cells, imaging)” value (“% Internalization relative to Control I” for short) in test [1] was 15.3%. Also, the “FACS Cell Binding (Fold Above Background)” value in test [2] stood at 9 fold. In addition, in test [3], the “Percent Blocking at 100 nM Antibody (STAT5-Luc reporter)” value (“Percent Blocking at 100 nM Antibody” below) amounted to 52%. Moreover, the “FACS Cell Binding (Fold Above Background)” value in test [4] is 2 fold. Further, in test [5], the Kd amounted to 681 nM, the “T 1/2” value was found to be 0.4 min, the koff is 0.0277 s⁻¹ and the on-rate (kon) is 40600 M⁻¹ s⁻¹. Moreover, in test [6], the Kd was 370 nM, the “T 1/2” value amounted to 0.7 min, the koff was 0.0165 s⁻¹ and the kon came to 44600 M⁻¹ s⁻¹. Besides, in test [7], binding was characterised by a dissociation constant (Kd) of 4.51 nM, the “T 1/2” value came out at 5 min, the off-rate (koff) is 0.0023 s⁻¹ and the kon is 509000 M⁻¹ s⁻¹.

B2: H1H6966N (antibody, human IgG1, V domains shown)
VH: QVQLVQSGAEVQKPGASVKVSCKVSGYTLTALSIHWVRQAPGKGLEWMGNFDPGDGETIHAQKFQGRVTMTGDTSTDTAYMELSSLRSEDTAVYYCVGVTFDYWGQGTLVTVSS
VL: EIVMTQSPATLSVSPGERATLSCRASQSVASNLAWYQQKPGQAPRLLLYGASTRATGIPARFSGSGSGTEFTLTISSLQSEDFALYYCQHYNNWPLTFGGGTKVEIK
notes: also called H2M6966N
Turning to B2, in test [1], the “% Internalization relative to Control I” value was 137%. In addition, the “FACS Cell Binding (Fold Above Background)” value in test [2] amounted to 31 fold. The “Percent Blocking at 100 nM Antibody” value in test [3] stood at 54%. Further, the “FACS Cell Binding (Fold Above Background)” value in test [4] amounted to 1 fold. Further, in test [5], the Kd stood at 0.607 nM, the “T 1/2” value is 12 min, the koff turned out to be 0.00096 s⁻¹ and the kon is 1.58e+06 M⁻¹ s⁻¹. Besides, in test [6], the Kd turned out to be 0.982 nM, the “T 1/2” value worked out at 9.6 min, the koff came to 0.0012 s⁻¹ and the kon came out at 1.22e+06 M⁻¹ s⁻¹. Also, in test [7], binding was put at a Kd of 0.0672 nM, the “T 1/2” value came out at 91.3 min, the koff is 0.000127 s⁻¹ and the kon turned out to be 1.88e+06 M⁻¹ s⁻¹.

B3: H1H6960N (antibody, human IgG1, V domains shown)
VH: EVQLVESGGGLVKPGGSLRLSCAASGITFSSYSMNWVRQAPGKGLEWVSSISTRSSLIHYADSVKGRFTISRDNAKNSLYLQMNSLRDEDTAVYYCARWDAAAAFDYWGQGTLVIVSS
VL: DIQLTQSPSFLSASVGDRVTITCWASQGISSYLAWYQQKPGKAPKLLIYVASTLQSGVPSRFSGSGSGTEFTLTISSLQPEDFATYFCQQLNSYPLTFGGGTKVEIK
notes: also called H2M6960N
Take B3: the “% Internalization relative to Control I” value in test [1] worked out at 120%. For the same molecule, the “FACS Cell Binding (Fold Above Background)” value in test [2] stood at 33 fold. In test [3], the “IC50 of Blocking 5 nM PRL [M] (STAT5-Luc reporter, HEK293/hPRLR/STAT5-Luc cells)” value is 1.58e-09 M and the “Percent Blocking at 100 nM Antibody” value is 100%. Further, in test [4], the “FACS Cell Binding (Fold Above Background)” value came out at 1 fold. For the same molecule, in test [5], the Kd is 16.2 nM, the “T 1/2” value came out at 5.8 min, the koff was 0.00198 s⁻¹ and the association rate constant (kon) is 122000 M⁻¹ s⁻¹. In test [6], binding was put at a Kd of 14.9 nM, the “T 1/2” value was found to be 9 min, the off-rate constant (koff) stood at 0.00128 s⁻¹ and the kon amounted to 86400 M⁻¹ s⁻¹. Also, in test [7], the Kd amounted to 0.5 nM, the “T 1/2” value turned out to be 78.7 min, the koff is 0.000147 s⁻¹ and the kon came out at 294000 M⁻¹ s⁻¹.

Usually Kd stands for the concentration at which binding is half-saturated. Lower therefore signals a tighter complex. In general, koff refers to a measure of how fast the partners let go of each other. As usually defined, the kon is a measure of how fast the partners come together. A higher kon goes with faster complex formation.
